Measured values as given in US6025158A, “Nucleic acids encoding humanized anti-IL-8 monoclonal antibodies” (Genentech, Inc., dated 2000).
Where two headings read alike, the source gives them in different places.

How the values were obtained:
[1] = target: T1, recombinant human IL-8, (ser-IL-8)72 (human, UniProt P10145); assay: competition phage ELISA (K64C IL-8 coated, free IL-8)
Text: The first step of the assay requires that the concentrations of the phage carrying the wild type and mutated antibodies be normalized, allowing a comparison of the relative affinities of each antibody.

[2] = target: rhesus IL-8 (rhesus, UniProt P67813); assay: cell-based or functional assay
[3] = target: T1, recombinant human IL-8, (ser-IL-8)72; assay: inhibition of 125I-IL-8 binding to human neutrophils
[4] = target: T1, recombinant human IL-8, (ser-IL-8)72; assay: 125I-IL-8 neutrophil competition; against F(ab)-1
[5] = target: IL-8 (Homo sapiens, UniProt P10145); assay: human (wild type) IL-8 mediated neutrophil chemotaxis; assay type: cell-based
Description: Human neutrophils were isolated, counted and resuspended at 5×10^6 cells/ml in Hank's balanced salt solution (abbreviated HBSS; without calcium and magnesium) with 0.1% bovine serum albumin. The neutrophils were labeled by adding calcein AM (Molecular Probe, Eugene, Oreg.) at a final concentration of 2.0 μM. Following a 30 minute incubation at 37° C., cells were washed twice with HBSS-BSA and resuspended at 5×10^6 cells/ml.
Chemotaxis experiments were carried out in a Neuro Probe (Cabin John, Md.) 96-well chamber, model MBB96. […] 100 μl of the calcein AM-labeled neutrophils were added to the upper chambers and allowed to migrate through a 5 micrometer porosity PVP free polycarbonate framed filter (Neuro Probe Inc.) toward the bottom chamber sample. The chemotaxis apparatus was then incubated for 40 to 60 minutes at 37° C. with 5% CO2. At the end of the incubation, neutrophils remaining in the upper chamber were aspirated and upper chambers were washed three times with PBS. Then the polycarbonate filter was removed, non-migrating cells were wiped off with a squeegee wetted with PBS, and the filter was air dried for 15 minutes.
The relative number of neutrophils migrating through the filter (Neutrophil migration index) was determined by measuring fluorescence intensity of the filter and the fluorescence intensity of the contents of the lower chamber and adding the two values together. Fluorescence intensity was measured with a CytoFluor 2300 fluorescent plate reader (Millipore Corp. Bedford, Mass.) configured to read a Corning 96-well plate using the 485-20 nm excitation filter and a 530-25 emission filter, with the sensitivity set at 3.
The affinity matured Fab variant, 6G4V11N35E, was tested for its ability to inhibit IL-8 mediated neutrophil chemotaxis as described in Section (B)(2) above. The reuseable 96-well chemotaxis chamber described in Section (B)(2) was replaced with endotoxin-free disposable chemotaxis chambers containing 5-micron PVP-free polycarbonate filters (ChemoTx101-5, Neuro Probe, Inc. Cabin John, Md.).

[6] = target: IL-8 binding to IL-8 receptors on human neutrophils (Homo sapiens, UniProt P10145); assay: inhibition of 125I-IL-8 binding to human neutrophils (competition binding assay); details: for IC50: humanized 6G425 variants, Table 4, read-out: IC50 Mean (concentration of variant necessary to inhibit binding of iodinated IL8 to human neutrophils)

B1: h6G4V11 alanine mutant Y37A (CDR-L1) (Fab, V domains shown)
VH: EVQLVQSGGGLVQPGGSLRLSCAASGYSFSSHYMHWVRQAPGKGLEWVGYIDPSNGETTYNQKFKGRFTLSRDNSKNTAYLQMNSLRAEDTAVYYCARGDYRYNGDWFFDVWGQGTLVTVSS
VL: DIQMTQSPSSLSASVGDRVTITCRSSQSLVHGIGNTALHWYQQKPGKAPKLLIYKVSNRFSGVPSRFSGSGSGTDFTLTISSLQPEDFATYYCSQSTHVPLTFGQGTKVEIKR
binding result [1]: no binding

B2: humanized 6G425 F(ab)-8 (Fab, V domains shown)
VH: EVQLVESGGGLVQPGGSLRLSCAASGYSFSSHYMHWVKQAPGKGLEWVGYIDPSNGETTYNQKFKGRFTLSRDNSKNTAYLQMNSLRAEDTAVYYCARGDYRYNGDWFFDVWGQGTLVTVSS
VL: DIQMTQSPSSLSASVGDRVTITCRSSQSLVHGIGNTYLHWYQQKPGKAPKLLIYKVSNRFSGVPSRFSGSGSGTDFTLTISSLQPEDFATYYCSQSTHVPLTFGQGTKVEIKR
IC50, IL-8 mediated neutrophil chemotaxis [2]: 10 nM

B3: humanized 6G425 F(ab)-2 (Fab, V domains shown)
VH: EVQLVESGGGLVQPGGSLRLSCAASGYSFSSHYMHWVRQAPGKGLEWVGYIDPSNGETTYNQKFKGRATISRDNSKNTLYLQMNSLRAEDTAVYYCAARGDYRYNGDWFFDVWGQGT
VL: DIQMTQSPSSLSASVGDRVTITCRSSQSLVHGIGNTYLHWYQQKPGKAPKLLIYYKVSNRFSGVPSRFSGSGSGTDFTLTISSLQPEDFATYYCSQSTHVPLTFGQGTKVEIKR
IC50 [3]: 106 nM
fold decrease in IL-8 binding [4]: < 2 fold

B4: humanized 6G425 F(ab)-3 (Fab, V domains shown)
VH: EVQLVESGGGLVQPGGSLRLSCAASGYSFSSHYMHWVRQAPGKGLEWVGYIDPSNGETTYNQKFKGRFTISVDNSKNTLYLQMNSLRAEDTAVYYCAARGDYRYNGDWFFDVWGQGT
VL: DIQMTQSPSSLSASVGDRVTITCRSSQSLVHGIGNTYLHWYQQKPGKAPKLLIYYKVSNRFSGVPSRFSGSGSGTDFTLTISSLQPEDFATYYCSQSTHVPLTFGQGTKVEIKR
IC50 [3]: 79.8 nM
fold decrease in IL-8 binding [4]: < 2 fold

B5: h6G4V11 alanine mutant H98A (CDR-L3) (Fab, V domains shown)
VH: EVQLVQSGGGLVQPGGSLRLSCAASGYSFSSHYMHWVRQAPGKGLEWVGYIDPSNGETTYNQKFKGRFTLSRDNSKNTAYLQMNSLRAEDTAVYYCARGDYRYNGDWFFDVWGQGTLVTVSS
VL: DIQMTQSPSSLSASVGDRVTITCRSSQSLVHGIGNTYLHWYQQKPGKAPKLLIYKVSNRFSGVPSRFSGSGSGTDFTLTISSLQPEDFATYYCSQSTAVPLTFGQGTKVEIKR
IC50 [1]: 8 nM

B6: 6G4.2.5 Fab: recombinant human-murine chimeric Fab of 6G4.2.5 (protein)
light: DIVMTQTPLSLPVSLGDQASISCRSSQSLVHGIGNTYLHWYLQKPGQSPKLLIYKVSNRFSGVPDRFSGSGSGTDFTLRISRVEAEDLGLYFCSQSTHVPLTFGAGTKLELKRAVAAPTVFIFPPSSEQLKSGTASVVCLLNNFYPREAKVQWKVDNALQSGNSQESVTEQDSKDSTYSLSSTLTLSKADYEKHKVYACEVTHQGLSSPVTKSFNRGEC
heavy: EIQLQQSGPELMKPGASVKISCKASGYSFSSHYMHWVKQSHGKSLEWIGYIDPSNGETTYNQKFKGKATLTVDTSSSTANVHLSSLTSDDSAVYFCARGDYRYNGDWFFDVWGAGTTVTVSSASTKGPSVFPLAPSSKSTSGGTAALGCLVKDYFPEPVTVSWNSGALTSGVHTFPAVLQSSGLYSLSSVVTVPSSSLGTQTYICNVNHKPSNTKVDKKVEPKSCDKTHT
inhibition of human IL-8 mediated neutrophil chemotaxis / migration [5]: demonstrates the inhibition of human IL-8 mediated neutrophil chemotaxis

B7: 5.12.14 Fab: recombinant human-murine chimeric Fab of 5.12.14 (protein)
light: DIVMTQSQKFMSTSVGDRVSVTCKASQNVGTNVAWYQQKPGQSPKALIYSSSYRYSGVPDRFTGSGSGTDFTLTISHVQSEDLADYFCQQYNIYPLTFGPGTKLELRRAVAAPSVFIFPPSDEQLKSGTASVVCLLNNFYPREAKVQWKVDNALQSGNSQESVTEQDSKDSTYSLSSTLTLSKADYEKHKVYACEVTHQGLSSPVTKSFNRGEC
heavy: EVQLVESGGGLVPPGGSLKLSCAASGFIFSSYGMSWVRQTPGKSLELVATINNNGDSTYYPDSVKGRFTISRDNAKNTLYLQMSSLKSEDTAMFYCARALISSATWFGYWGQGTLVTVSAASTKGPSVFPLAPSSKSTSGGTAALGCLVKDYFPEPVTVSWNSGALTSGVHTFPAVLQSSGLYSLSSVVTVPSSSLGTQTYICNVNHKPSNTKVDKKVEPKSCDKTHT
inhibition of human IL-8 mediated neutrophil chemotaxis / migration [5]: demonstrates the inhibition of human IL-8 mediated neutrophil chemotaxis

B8: F(ab)-6: humanized variant, F(ab)-1 with IleH69Leu and LeuH78Ala (antibody, V domains shown)
VL: DIQMTQSPSSLSASVGDRVTITCRSSQSLVHGIGNTYLHWYQQKPGKAPKLLIYYKVSNRFSGVPSRFSGSGSGTDFTLTISSLQPEDFATYYCSQSTHVPLTFGQGTKVEIKR
VH: EVQLVESGGGLVQPGGSLRLSCAASGYSFSSHYMHWVRQAPGKGLEWVGYIDPSNGETTYNQKFKGRFTLSRDNSKNTAYLQMNSLRAEDTAVYYCAARGDYRYNGDWFFDVWGQGT
increase in affinity for IL-8 ([6]; compared to F(ab)-1): approximately 2 fold
IC50 [6]: 34.6 nM

B9: F(ab)-7: humanized variant, F(ab)-6 with LeuH80Val (antibody, V domains shown)
VL: DIQMTQSPSSLSASVGDRVTITCRSSQSLVHGIGNTYLHWYQQKPGKAPKLLIYYKVSNRFSGVPSRFSGSGSGTDFTLTISSLQPEDFATYYCSQSTHVPLTFGQGTKVEIKR
VH: EVQLVESGGGLVQPGGSLRLSCAASGYSFSSHYMHWVRQAPGKGLEWVGYIDPSNGETTYNQKFKGRFTLSRDNSKNTAYVQMNSLRAEDTAVYYCAARGDYRYNGDWFFDVWGQGT
IC50 [6]: 38.4 nM

B10: F(ab)-8: humanized variant, F(ab)-6 with ArgH38Lys (protein)
light: DIQMTQSPSSLSASVGDRVTITCRSSQSLVHGIGNTYLHWYQQKPGKAPKLLIYKVSNRFSGVPSRFSGSGSGTDFTLTISSLQPEDFATYYCSQSTHVPLTFGQGTKVEIKRTVAAPSVFIFPPSDEQLKSGTASVVCLLNNFYPREAKVQWKVDNALQSGNSQESVTEQDSKDSTYSLSSTLTLSKADYEKHKVYACEVTHQGLSSPVTKSFNRGEC
heavy: EVQLVESGGGLVQPGGSLRLSCAASGYSFSSHYMHWVKQAPGKGLEWVGYIDPSNGETTYNQKFKGRFTLSRDNSKNTAYLQMNSLRAEDTAVYYCARGDYRYNGDWFFDVWGQGTLVTVSSASTKGPSVFPLAPSSKSTSGGTAALGCLVKDYFPEPVTVSWNSGALTSGVHTFPAVLQSSGLYSLSSVVTVPSSSLGTQTYICNVNHKPSNTKVDKKVEPKSCDKTHT
IC50 ([5]; read-out: IC50, human wild type IL-8 mediated neutrophil chemotaxis): 12 nM

B11: 6G4V11N35E Fab: affinity matured variant of humanized 6G4V11 Fab with Glu at position 35 of CDR-L1 (protein)
light: DIQMTQSPSSLSASVGDRVTITCRSSQSLVHGIGETYLHWYQQKPGKAPKLLIYKVSNRFSGVPSRFSGSGSGTDFTLTISSLQPEDFATYYCSQSTHVPLTFGQGTKVEIKRTVAAPSVFIFPPSDEQLKSGTASVVCLLNNFYPREAKVQWKVDNALQSGNSQESVTEQDSKDSTYSLSSTLTLSKADYEKHKVYACEVTHQGLSSPVTKSFNRGEC
heavy: EVQLVQSGGGLVQPGGSLRLSCAASGYSFSSHYMHWVRQAPGKGLEWVGYIDPSNGETTYNQKFKGRFTLSRDNSKNTAYLQMNSLRAEDTAVYYCARGDYRYNGDWFFDVWGQGTLVTVSSASTKGPSVFPLAPSSKSTSGGTAALGCLVKDYFPEPVTVSWNSGALTSGVHTFPAVLQSSGLYSLSSVVTVPSSSLGTQTYICNVNHKPSNTKVDKKVEPKSCDKTHT
IC50 ([5]; 2 nM IL-8, disposable chemotaxis chambers, read-out: IC50, human IL-8 mediated neutrophil chemotaxis): ~1.2 nM
inhibition of chemotaxis at 3.7 nM-33 nM ([5]; 2 nM stimulus of rabbit or human IL-8, compared with buffer control): could completely inhibit this response
